Ends that are not written are not given here.
Key:
[1] = Fetuin A / casein phosphopeptide mixed nanoclusters, dynamic light scattering; format: physicochemical; conditions: 66.4 mg ml^−1, Mg-free Buffer A, urea/urease method
Method: Fetuin A was purchased from Sigma Aldrich as product no. F3004. […] The inventors determined the precipitation problem was much reduced at lower fetuin A concentrations so an approach was adopted in which mixed nanoclusters were prepared with casein phosphopeptides and a variable concentration of the fetuin A to recover the size of the fetuin nanoclusters by an extrapolation procedure from lower concentrations. The casein phosphopeptide mixture was supplied by Arla Ltd, Denmark as product Lacprodan 2090 (Na salt). […] The intensity weighted normalised distribution curves calculated by Laplace transformation of the correlation functions of the 6 samples, offset vertically for clarity (FIG. 18a) indicate a nanocluster peak of about 6 nm in accordance with previous work, but as the fetuin A concentration increased, a second peak became increasingly important at larger size. […] Although difficult to estimate exactly, on the basis of scattering by homogeneous spherical particles, the weight fraction of aggregated material in these experiments was calculated to be less than 1% in all cases. […]

[2] = SAXS of free OPN and OPN 1-149 (Guinier, worm-like chain model); format: physicochemical
Method: In a SAXS experiment, wherein measurements were made on station 2.1 at the CCLRC Daresbury Laboratory, the normalised scattered intensity I(q) was measured. For a dispersion of isotropic, monodisperse particles, I(q) is related to the inter-particle structure factor, S(q) and the particle scattering factor P(q) by
where N is the number of particles of mean excess scattering length density over the solvent Δ ρp, volume Vp and mass M. The scattering wave vector is q=4π sin θ/λo, where θ is half the scattering angle and λo is the wavelength of the X-rays. In a dilute solution where S(q)=1 and a fraction α′ of the peptide chains have formed a polydisperse distribution of nanoclusters, equation (22) becomes
The molar volumes of the unphosphorylated residues were taken from Jacrot and Zaccai (Jacrot, B. & Zaccai, G. (1981). Determination of Molecular-Weight by Neutron-Scattering. Biopolymers 20, 2413-2426). The molar volume of ortho-L-phosphoserine was calculated from the unit cell volume of the amino acid, as determined by Sundaralingam (Sundaralingam, M. & Putkey, E. F. (1970). Molecular structures of amino acids and peptides. II. A redetermination of the crystal structure of L-O-serine phosphate. A very short phosphate-carboxyl hydrogen bond. Acta Crystallographica B26, 790-800) and 11 Å^3 subtracted to give the residue volume of 168.7 Å^3. The difference in residue volumes of serine and phosphoserine was then used to calculate a residue volume for phosphothreonine of 191.7 Å^3. The X-ray forward scattering amplitudes of the residues were calculated from the elemental compositions using atomic scattering factors. For OPN 16P 1-149 and OPN 28P 1-262, the scattering length densities in units of […] were calculated to be 12.56 and 12.48, respectively. For the nanoclusters prepared with OPN 16P 1-149 it was assumed that the phosphate moieties of the 10 phosphorylated residues found in the three PCs, were assigned to the core, giving ρshell=12.40×10^10 cm^−2. For the core, a hydrated CaP with the composition given by equation (2) gave ρcore=19.1×10^10 cm^−2. Radii of gyration of the whole protein and N-terminal polypeptide were independent of concentration in the range 5-15 mg ml^−1. For OPN the average of three determinations by the Guinier method was 5.50±0.17 nm and the corresponding value for OPN 1-149 was 2.17±0.24 nm. For OPN with 262 residues, equation (28) predicts a radius of gyration of 5.38 nm and for the N-terminal plasmin peptide of 149 residues, the predicted value is 3.84 nm.
Random-coil behavior and the dimensions of chemically unfolded proteins. Proceedings of the National Academy of Sciences of the United States of America 101, 12491-12496). […]

[3] = Ca2+ binding isotherm (Ca ion selective electrode) fitted with semi-empirical binding model; conditions: from isotherm fit
Text: To model the chemical species in the OPN 1-149 nanocluster solution requires the calculation of Ca ion binding to the free peptide at any pH in the range 5.0-8.0. A semi-empirical model was used to describe the binding isotherms obtained previously for the β-casein 1-25 phosphopeptide in this pH range and the same model was adapted to fit the binding isotherm of OPN 1-149 measured at pH 7.0. The rescaled model was then used to predict binding at any other value of the pH. Binding of Ca ions to the β-casein 1-25 peptide is predominantly to 4 phosphorylated residues and, to a lesser extent, to 7 Glu residues and the C-terminus.
Fitting of the experimental isotherms was done to an equation of the form
where the summation is over all binding sites with Ca ion association constants Ka,i. The function Ni(pH) describes the number of sites of type i as a function of pH and φi is the degree of phosphorylation. It was assumed, that all the phosphorylated sites had the average degree of phosphorylation φ. The number of dianionic phosphoseryl sites at a given pH is given by
The binding behaviour of β-casein has shown that one Ca ion is bound much more strongly than the rest, so the model for binding to the phosphate dianionic groups allowed for two pKs and two Ca ion association constants. The phosphorylated sites have a reduced affinity for Ca ions when they become protonated and were treated as having the same low affinity as the carboxyl groups. […]
The Ca^2+ binding isotherm of peptides recovered from fraction F3a was determined by measuring the concentration of free Ca ions with a Ca ion selective electrode after successive small additions of a stock solution of 100 mM Ca(NO3)2 to a solution containing 25 mg ml^−1 of F3a, buffered to pH 7.0 with 20 mM P, and 50 mM KNO3. […] The calculated OPN 1-149 isotherm was obtained by a separate fitting of the single isotherm employing a model with two pKs and association constants but keeping as many as possible of the constants from the casein model.

In the case of “Fetuin A: purchased from Sigma Aldrich, product no. F3004, purity about 80-90%”, the “nanocluster preparation with fetuin A alone” value [1] is reported as “a fraction of the product precipitated”.
For “OPN: full length native bovine milk osteopontin, gel filtration fraction F2”, the “Kuhn length from the worm-like chain model” value ([2]; fit of SAXS) was 1.74±0.14 nm, the “radius of gyration by the Guinier method” value ([2]; free peptide, 5-15 mg ml^−1, average of three determinations) was 5.50±0.17 nm and the “Kuhn segment length b from equation (24)” value ([2]; from radius of gyration) was 1.9 nm.
With “β-casein 1-25: 25 residue N-terminal bovine β-casein tryptic phosphopeptide (RELEELNVPGEIVESLSSSEESITR; also: phosphopeptide (4P), sites not given here; UniProt P02666 16-40, looked up, fragment)” the “effective pK of the isolated Pse residue” value [3] was 6.0 and the “pK of the cluster of three Pse residues” value [3] was 7.2.

— US20110117206A1, “PHOSPHOPEPTIDES AND USE OF THE SAME” (PLANT BIOSCIENCE LIMITED, priority 2008, published 2011)
